From the nanobody polyreactivity screen of Harvey et al. (2022)

Assay: yeast display, Sf9 membrane polyspecificity reagent, FACS + sequencing; frameworks hold sequencing errors
Summary of the method: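 Sorting gates, low and high (top ~1%), were placed on anti-HA fluorescence to track expression and on streptavidin fluorescence to track reagent binding. A clone's polyreactivity label is taken from the gate it came out of. The reagent was 10% biotinylated, detergent-solubilized Sf9 membrane, applied for 1 hour at 4 °C to galactose-induced yeast display cells.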

## QFQLVESGGGLVQAGGSLRISCAASGSIFRRYAMGWYRQAPWKERELVATISSGTTTNYADSVKGRFTISRDNANNSVYLQLNSLKPEDTSVFYCAAVVYGHIRGPGERKSYWGQGTQVTVSS
  polyreactivity (PSR sort gate): high polyreactivity

## QVQLVESGGGLVQAGGILRLSCAASGLTFEQYAMGWYRQAPGKERELVAAISWSGGRTYYADSVKGRFTISRDNAKNTVYLQMNSLKPEDTAVYYCAKDRGCPFYWRYPLGYWGQGTQVTVSS
  polyreactivity (PSR sort gate): high polyreactivity

## QVQLVESGGGLVQAGGSLRLSCAASGRTLTGYDMGWYRQAPGKERELVAAITWSGGSTFYADSVKGRFTMSRYNAKNTVYLQMNSLKPEDTAVYYCNVTDVTEPSLIYGYYWGQGTQVTVSS
  polyreactivity (PSR sort gate): low polyreactivity

## QVQLVESGGGLVQAGGSLRLICAASGSIFADYAMGWYRQAPGKERELVAAITGGTSTYYADSVKGRFTISRDNAKNTVYLQMNSLKPEDTAVYYCAAYYYWEFSYYEYDYWGQGSQVTVSS
  polyreactivity (PSR sort gate): low polyreactivity

## QVQLVESGGGLVQAGGSLRLSCAASACTFNVNAMGWYRQEAGKERELVAAITNGGITNYADSVKGRFTISRDNAKNTVYLQMNSLKPEDTAVYDCAARTIYKTQSPRPFRRGYWGQGTQVTVSS
  polyreactivity (PSR sort gate): high polyreactivity

## QVQLVESGGGLVQAGGSLRLSCAASGRIFYHNAMGWYRQAPGKERELVAAIRWSGGSTYYADSEKGRFTISRDNAKNTVYLLMKSLKPEDTAVYYWATDVPIREIDEFGYWGQGTQVTVSS
  polyreactivity (PSR sort gate): low polyreactivity

## QVQLVESGGGLVQAGGSLRLSCAASGGTIVWNAMGWYRQAPGKEREFVAAITSSGGSTYYADSVKGRFTITRDYAKNTVYLQINSLKPEDTAVDYCNVDTHSSYEFNSWGQGTQVTVSS
  polyreactivity (PSR sort gate): low polyreactivity

## QVQLVESGGGLVQAGGSLRLSCAASGRTFYIYAMGWYRQAPGKERELVATIDSTGSTNYADSVKGRFTISRDNAKNTVYLQMNSLKPEDTAVYYCNADDWVGRSLRYDYWGQGTQVTVSS
  polyreactivity (PSR sort gate): low polyreactivity

## QVQLQESGGGLVQAGGSLRLSCAASGNIVVADIMGWYRQAPGKERELVASITDGGSTNYADNVKGRFTISRDNAKNTVYLQMNSLIPEDTAVYYCAANAFPDIPTYFVYDYDYFYWGQGTQVTVSG
  polyreactivity (PSR sort gate): high polyreactivity

## QVQLVESGGGLVQAGGSLRLSCAASGFTFYTNTMGWYRQAPGKERELVAAISSGGSTYYADSVKGRFTISLDNAKNTVYLKMNSLKPEVTAVYYCAVYGPWAYYPMGYWGQGTQVTVSS
  polyreactivity (PSR sort gate): low polyreactivity

## QVQLVESGGGVVQAGGSLRLSCAASGRTFKPYAMGWYRQAPGKERELVAAISSGVSTHYADSVKGRFTISRDNAKNTVYLQMNSLKPEDTAVYYCAADYWVNYWFDYWGQGTQVTVSS
  polyreactivity (PSR sort gate): low polyreactivity

## QVQLVESGGGLVQAGGSLRLSCAASGNTFYRYAMGWYRQAPGKERELVAAITWSGSRTYYADSVKGRFTISRDNAKNTVYLQMNSLKPEDTAVYYCAAPFWYVGPAMDYWGQGTQVTVSS
  polyreactivity (PSR sort gate): low polyreactivity

## QVQLVESGGGLVQAGGSLRLSCAASGSISVYYAMGRYRQAPGKERELVASIRYTGGRTYYADSVKGRFTISRDNAKNTVYLQMNSLKPEDTAVYYCAADVKRDRVWGGDYWGHGTQVTVSS
  polyreactivity (PSR sort gate): low polyreactivity

## QVQLVESGGGLVKEGGSLRLSCAASGRIFGPYAMGWYRQAPGKERELVAVITNSGSTNYADSVKGRFTISRDNAKNSVYLQMNCLKPEDTAVYYCNRFEGGAYGSNFDYWGQGTQVTVSS
  polyreactivity (PSR sort gate): high polyreactivity

## QVQLVESGGGLVQAGGSLRLSCAASGSILYPNAMGLYRQAPGKERELVAAISSSGGSTYYADSVKGRFTISRDNAKNTVYLQMNSLKPEDTAVYYCAADHYIPIYSKYDYWGQVTQVTVSS
  polyreactivity (PSR sort gate): high polyreactivity

## QVQLVESGGGLDQAGGSLLLSCAASGSIFRSNAMGWYRQAPRKERELVAAIDYSGTSTTYADSVKGRFSISRDNAKNTVYLQMNSLKPEDTAVYYCNADGYYRGYWSGYEYWGQGTQGTVSS
  polyreactivity (PSR sort gate): low polyreactivity

## QVQLVDSGGGLVQAGGSLRLSCAASGLTFTRYAMGWYRQAPGKERELVAAISKNGGSTYYADSVKGRFTISRDNAKNTVYLQMNSLKPAETAVYYCAARRYGPGRYPEDYWGQGTQVTVSS
  polyreactivity (PSR sort gate): high polyreactivity

## QVQLVESGGGLVQAGGSLRLSCAASGLTFQSYAMGWYRQAPGKEREFAYYADSVKGRFTMSRDNAKNTVYLQMNSLKPEDTAVYYCNGADDEGDRPITQVGYDYWGQGTQVTVSS
  polyreactivity (PSR sort gate): low polyreactivity

## QVQLVESGGGLVQAGGSLRLSCAASGSIFITYAMGWYRQAPGKERELVAAIRDSGDRTYYADSVKGRFTISRDNAKNTVYLQMNSLKPEDTAVYFCNARWQEPLKYDYWGQGTQVTVSS
  polyreactivity (PSR sort gate): low polyreactivity

## QVQLVESGGGLVQAGGSLRLSCAASGLIFRTYTMGWYRQAPGKERELVATITRRCGTTYYADSVKGRFTISRDNAKNTVYLQMNSLKPEDTAVYYFAKSPYYTWKYDYWGQGTQVTVSS
  polyreactivity (PSR sort gate): high polyreactivity

## HGQLVESGGGLVQAGGSLRLSCAASGITFTPKDMGWYREAPGKERELVAAISSSDGTTYYADSVTGRFTSSRDNAKNTVYLQMNSLKPEDTAVYYCAAEYYYSPAYDYYSGFKTLYYDWGQGTQVTGSS
  polyreactivity (PSR sort gate): high polyreactivity

## QVQLVESGGGLVQAGGSLRLSCAASGRTFFGYAMGWYRQAPGKERELVATISGSGASTYYADSVKGRFTISRDNAKNTVYLQMNSLKPEDTAVYYCAVRLYFYQRNYYSWGQGTQVTVSS
  polyreactivity (PSR sort gate): high polyreactivity

## QVKLVESGGGLVQAGGSLRLSCAASGRTFKYYAMGWYRQAPGKERELVAAISWSGGSTYYADSVMGRFTISRDNAKNTVYLQMNSLKPEDTAVYYCAAVRNYHGTWYDYWGQGTQVTVSS
  polyreactivity (PSR sort gate): high polyreactivity

## QVQLVESGGGLVQAGGSLRLSCAASGIILHYYTMGWYRQAPGKERELVAAITFSGGGTYYADSVKGRFTISRDNAKNTVYLQMNSLKPEDTAVYYCAAPWRYYGHDYWGQGTQVTVSS
  polyreactivity (PSR sort gate): low polyreactivity

## QVQLVESGGGLVQAGGSLRLSCAASGSTFQPYAMGWYRQAPGKERELVAAITFSGGSTYYADSVKGRFTISRDNAKNTVYLQMNSLKPEDTAVYYCAAYRRPDYGSWGQGTQVTVSS
  polyreactivity (PSR sort gate): high polyreactivity

## QVQLVESVGGLVQAGGSLRLICAASGIIFKFNAMGWYRQAPGKEREFVAAIRWRGGSTYYADSVKGRFTISRDNAKNTVYLQMNSLKPEDTAVYYCAATYRTGYYYWGQGTQVTVSS
  polyreactivity (PSR sort gate): high polyreactivity

## QVQLVESGGGLVQAGGSLRLSCAASGRIFSLYAMGWYRQAPGKERELVATMDSNGGSTYYADSVKGRFTISRDNAKNTVYLQMNSLKPEDTAVYYCAAERYVRVWVAGILHYDYWGQGTQVTVSS
  polyreactivity (PSR sort gate): low polyreactivity

## QVQLVESGGGLVQAGGSLRVSCAASGRIFVQYDMGWYRQAPGKERELVAAINDSGDITYYADSVKGRFTISRDNAKNTVYLQMTSLKPEDTAVYSCAASAAYYGFYKSVTYDYWGQGTQVSVSS
  polyreactivity (PSR sort gate): low polyreactivity

## QVQLVESGGGLVQAGGSLRLSCAASGFTFAVNAMGWYRQAPGKERELVAAISWSGVSTYYADSVKRRFTISRDNAKNTVYLQMNSLKPEDTAVYYCARRRTKSYTRKYDYWGQGTQVTVSS
  polyreactivity (PSR sort gate): low polyreactivity

## QVQLVESGGGLVQAGGSLRLSCAASGGTFSYYAMGWYRQAPGKERELVAAITYSGDRTYYADSVKGRFTISRDNAKNTVFLQMNSLKPEDTAVYYCNAVRGSWYGYYYWGQGTQVTVSS
  polyreactivity (PSR sort gate): high polyreactivity

## QVQLVESGGGLVQAGGSLRLSCAASGSIFNRYTMGWYRQAPGKERELVAAISKRGGSTYYADSVKGRFTISRDNAKNTVYLQMNSLKPEDPAVYYCAAAGYHSGKGGGYWGQGTQVTVSS
  polyreactivity (PSR sort gate): high polyreactivity

## QVQLVESGGGLVQAGGSLRLSCAASGRIFPRNAMGWYRQAPGKERELVAAISSGGGSTYYADSVKGRFTISRDNAKNTVYLQMNSLKPEDTAVYYCAKRAGWAGWYYRNDYWGQGTQVTVSS
  polyreactivity (PSR sort gate): high polyreactivity
